Experimental data taken from publication PMC10397247.

What was measured:
Assay in all cases: two-hybrid library CCNG1;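 note: natural log of median RNA to DNA barcode read ratio; higher means stronger binding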
P9A = target: T1, P9A
T1 chain: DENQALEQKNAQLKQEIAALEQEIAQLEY

P7A = target: T2, P7A
T2 chain: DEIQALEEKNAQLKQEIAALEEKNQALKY

P6A = target: T3, P6A
T3 chain: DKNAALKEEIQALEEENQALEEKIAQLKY

P8A = target: T4, P8A
T4 chain: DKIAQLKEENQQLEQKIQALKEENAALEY

4H953-bH = target: T5, 4H953-bH
T5 chain: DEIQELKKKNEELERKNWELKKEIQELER

4H855-bH = target: T6, 4H855-bH
T6 chain: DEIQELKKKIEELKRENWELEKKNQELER

4H56-bA = target: T7, 4H56-bA
T7 chain: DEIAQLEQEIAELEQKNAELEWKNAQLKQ

4H3010-bH = target: T8, 4H3010-bH
T8 chain: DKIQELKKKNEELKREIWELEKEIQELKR

4H4073-bH = target: T9, 4H4073-bH
T9 chain: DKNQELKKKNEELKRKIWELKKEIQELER

4H780-bH = target: T10, 4H780-bH
T10 chain: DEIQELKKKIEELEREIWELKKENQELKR

4H3926-bH = target: T11, 4H3926-bH
T11 chain: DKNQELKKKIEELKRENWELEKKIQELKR

4H346-bH = target: T12, 4H346-bH
T12 chain: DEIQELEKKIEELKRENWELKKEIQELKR

4H968-bH = target: T13, 4H968-bH
T13 chain: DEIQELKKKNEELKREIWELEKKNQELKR

4H3112-bH = target: T14, 4H3112-bH
T14 chain: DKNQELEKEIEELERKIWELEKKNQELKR

4H457-bH = target: T15, 4H457-bH
T15 chain: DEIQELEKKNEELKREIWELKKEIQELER

4H683-bH = target: T16, 4H683-bH
T16 chain: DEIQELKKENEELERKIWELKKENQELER

4H3427-bH = target: T17, 4H3427-bH
T17 chain: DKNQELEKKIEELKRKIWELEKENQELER

4H797-bH = target: T18, 4H797-bH
T18 chain: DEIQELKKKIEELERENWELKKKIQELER

4H2673-bH = target: T19, 4H2673-bH
T19 chain: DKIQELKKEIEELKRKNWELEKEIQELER

4H754-bH = target: T20, 4H754-bH
T20 chain: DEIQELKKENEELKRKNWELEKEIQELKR

4H2702-bH = target: T21, 4H2702-bH
T21 chain: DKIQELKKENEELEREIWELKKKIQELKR

4H575-bH = target: T22, 4H575-bH
T22 chain: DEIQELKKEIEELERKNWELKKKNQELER

4H918-bH = target: T23, 4H918-bH
T23 chain: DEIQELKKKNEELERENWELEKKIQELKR

4H3961-bN = target: T24, 4H3961-bN; conditions: mean of both orientations
T24 chain: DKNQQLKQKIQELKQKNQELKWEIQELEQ

4H470-bN = target: T25, 4H470-bN
T25 chain: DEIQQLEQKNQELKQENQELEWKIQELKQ

4H4001-bN = target: T26, 4H4001-bN
T26 chain: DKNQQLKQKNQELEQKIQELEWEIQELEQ

4H3843-bN = target: T27, 4H3843-bN
T27 chain: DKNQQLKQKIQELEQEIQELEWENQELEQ

4H3606-bN = target: T28, 4H3606-bN
T28 chain: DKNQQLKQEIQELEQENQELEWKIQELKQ

4H953-bN = target: T29, 4H953-bN
T29 chain: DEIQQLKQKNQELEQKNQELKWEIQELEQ

4H3189-bN = target: T30, 4H3189-bN
T30 chain: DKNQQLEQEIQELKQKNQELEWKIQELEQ

4H918-bN = target: T31, 4H918-bN
T31 chain: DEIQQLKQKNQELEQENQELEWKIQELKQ

4H797-bN = target: T32, 4H797-bN
T32 chain: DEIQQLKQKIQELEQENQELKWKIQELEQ

4H687-bN = target: T33, 4H687-bN
T33 chain: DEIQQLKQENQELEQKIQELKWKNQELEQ

4H3782-bN = target: T34, 4H3782-bN
T34 chain: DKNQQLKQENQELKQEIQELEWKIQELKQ

4H370-bN = target: T35, 4H370-bN
T35 chain: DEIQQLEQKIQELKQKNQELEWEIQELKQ

4H568-bN = target: T36, 4H568-bN
T36 chain: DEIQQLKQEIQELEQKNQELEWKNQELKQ

4H967-bN = target: T37, 4H967-bN
T37 chain: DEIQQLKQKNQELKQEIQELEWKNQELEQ

4H462-bN = target: T38, 4H462-bN
T38 chain: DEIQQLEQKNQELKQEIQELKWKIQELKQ

P5bHq = target: T39, P5bHq
T39 chain: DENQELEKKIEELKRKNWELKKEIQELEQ

4H883-bN = target: T40, 4H883-bN
T40 chain: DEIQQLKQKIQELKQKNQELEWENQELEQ

4H607-bN = target: T41, 4H607-bN
T41 chain: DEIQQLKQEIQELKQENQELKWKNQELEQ

4H331-bN = target: T42, 4H331-bN
T42 chain: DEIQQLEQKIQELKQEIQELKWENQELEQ

4H72-bN = target: T43, 4H72-bN
T43 chain: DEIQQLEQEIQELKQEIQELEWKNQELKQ

4H906-bA = target: T44, 4H906-bA
T44 chain: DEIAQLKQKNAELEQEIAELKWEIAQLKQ

4H626-bA = target: T45, 4H626-bA
T45 chain: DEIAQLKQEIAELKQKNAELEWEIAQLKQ

4H3628-bA = target: T46, 4H3628-bA
T46 chain: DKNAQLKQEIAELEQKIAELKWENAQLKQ

4H3926-bA = target: T47, 4H3926-bA
T47 chain: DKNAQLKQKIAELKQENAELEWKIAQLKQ

4H3497-bA = target: T48, 4H3497-bA
T48 chain: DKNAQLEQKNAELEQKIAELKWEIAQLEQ

4H3613-bA = target: T49, 4H3613-bA
T49 chain: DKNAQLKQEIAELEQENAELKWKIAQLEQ

4H3175-bA = target: T50, 4H3175-bA
T50 chain: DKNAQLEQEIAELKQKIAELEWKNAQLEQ

4H3277-bA = target: T51, 4H3277-bA
T51 chain: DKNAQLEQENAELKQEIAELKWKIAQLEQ

4H3462-bA = target: T52, 4H3462-bA
T52 chain: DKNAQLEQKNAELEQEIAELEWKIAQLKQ

4H591-bA = target: T53, 4H591-bA
T53 chain: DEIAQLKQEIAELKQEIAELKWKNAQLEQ

4H3298-bA = target: T54, 4H3298-bA
T54 chain: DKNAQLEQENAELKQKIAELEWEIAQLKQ

4H2588-bA = target: T55, 4H2588-bA
T55 chain: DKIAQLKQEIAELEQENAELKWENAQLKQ

4H741-bA = target: T56, 4H741-bA
T56 chain: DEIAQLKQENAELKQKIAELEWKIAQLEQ

4H2692-bA = target: T57, 4H2692-bA
T57 chain: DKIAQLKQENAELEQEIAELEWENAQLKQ

4H2915-bA = target: T58, 4H2915-bA
T58 chain: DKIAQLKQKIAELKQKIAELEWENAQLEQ

4H477-bA = target: T59, 4H477-bA
T59 chain: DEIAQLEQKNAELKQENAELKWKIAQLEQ

4H2717-bA = target: T60, 4H2717-bA
T60 chain: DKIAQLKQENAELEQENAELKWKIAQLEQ

4H319-bA = target: T61, 4H319-bA
T61 chain: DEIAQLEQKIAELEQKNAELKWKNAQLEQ

4H348-bA = target: T62, 4H348-bA
T62 chain: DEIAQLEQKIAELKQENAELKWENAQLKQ

4H3057-bA = target: T63, 4H3057-bA
T63 chain: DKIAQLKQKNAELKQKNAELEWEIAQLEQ

4H2839-bA = target: T64, 4H2839-bA
T64 chain: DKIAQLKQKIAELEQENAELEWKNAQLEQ

4H492-bA = target: T65, 4H492-bA
T65 chain: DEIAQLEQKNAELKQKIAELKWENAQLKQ

4H40-bA = target: T66, 4H40-bA
T66 chain: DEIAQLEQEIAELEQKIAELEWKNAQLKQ

Binder DKNAALKEEIQALEEENQALEEKIAQLKY [P6A] has an interaction score (P9A) of -0.171, an interaction score (P7A) of -0.197 and an interaction score (P6A) of -0.792. It also gave an interaction score (P8A) of -0.152.

DKIQELKKEIEELKRKNWELEKEIQELER [4H2673-bH] was tested, and the interaction score (4H953-bH) was -1.62, the interaction score (4H855-bH) was -0.854 and the interaction score (4H56-bA) was 0.863. For the same binder, the interaction score (4H3010-bH) was 2.11, the interaction score (4H4073-bH) was 0.575 and the interaction score (4H780-bH) was -0.56. It also gave an interaction score (4H3926-bH) of 0.192, an interaction score (4H346-bH) of -0.803 and an interaction score (4H968-bH) of -0.933. The interaction score (4H3112-bH) was -0.64, the interaction score (4H457-bH) was -0.154 and the interaction score (4H683-bH) was 0.639. For the same binder, the interaction score (4H3427-bH) was -0.449, the interaction score (4H797-bH) was -0.55 and the interaction score (4H2673-bH) was -0.111. The interaction score (4H754-bH) was -1.99, the interaction score (4H2702-bH) was -0.671 and the interaction score (4H575-bH) was -0.762. For the same binder, the interaction score (4H918-bH) was -0.87.

DKNQQLKQKIQELKQKNQELKWEIQELEQ [4H3961-bN] gave an interaction score (4H3961-bN) of -1.14, an interaction score (4H470-bN) of -1.5 and an interaction score (4H4001-bN) of -0.763.

With DKIQELKKENEELEREIWELKKKIQELKR [4H2702-bH] the interaction score (4H953-bH) was 0.896, the interaction score (4H855-bH) was -0.0377 and the interaction score (4H3010-bH) was 1.37. The interaction score (4H4073-bH) was 0.92, the interaction score (4H780-bH) was -0.871 and the interaction score (4H3926-bH) was 0.525. It also gave an interaction score (4H346-bH) of 0.405, an interaction score (4H968-bH) of 0.8 and an interaction score (4H3112-bH) of 0.549. It also gave an interaction score (4H457-bH) of 1.57, an interaction score (4H683-bH) of -0.558 and an interaction score (4H3427-bH) of 0.468. For the same binder, the interaction score (4H797-bH) was -0.247, the interaction score (4H754-bH) was -0.588 and the interaction score (4H2702-bH) was 1.55. It also gave an interaction score (4H575-bH) of -2.01 and an interaction score (4H918-bH) of -0.77.

DKNQQLEQEIQELKQKNQELEWKIQELEQ [4H3189-bN] gave an interaction score (4H3843-bN) of -1.81, an interaction score (4H3606-bN) of -0.893 and an interaction score (4H953-bN) of -1.88. It also gave an interaction score (4H3189-bN) of -1.1, an interaction score (4H918-bN) of -0.805 and an interaction score (4H797-bN) of -0.933. The interaction score (4H687-bN) was -0.938, the interaction score (4H3782-bN) was -1.38 and the interaction score (4H370-bN) was -1.02. For the same binder, the interaction score (4H568-bN) was -0.877, the interaction score (4H967-bN) was -1.41 and the interaction score (4H462-bN) was -0.731. For the same binder, the interaction score (P5bHq) was -2.13, the interaction score (4H883-bN) was -1.35 and the interaction score (4H607-bN) was -2.38. For the same binder, the interaction score (4H331-bN) was -1.93, the interaction score (4H4001-bN) was -1.58 and the interaction score (4H72-bN) was -0.483.

DKNAQLEQEIAELKQKIAELEWKNAQLEQ [4H3175-bA] gave an interaction score (4H906-bA) of -1.09, an interaction score (4H626-bA) of -2 and an interaction score (4H3628-bA) of -0.531. It also gave an interaction score (4H3926-bA) of -0.662, an interaction score (4H3497-bA) of 0 and an interaction score (4H3613-bA) of -0.277. For the same binder, the interaction score (4H3175-bA) was 0.672, the interaction score (4H3277-bA) was -0.717 and the interaction score (4H3462-bA) was -0.259. For the same binder, the interaction score (4H591-bA) was -1.55, the interaction score (4H3298-bA) was -0.491 and the interaction score (4H4001-bN) was -0.893.

Work on DKIAQLKQEIAELEQENAELKWENAQLKQ [4H2588-bA] yielded an interaction score (4H2588-bA) of 1.71, an interaction score (4H741-bA) of -0.854 and an interaction score (4H2692-bA) of -0.738. The interaction score (4H2915-bA) was 0.571, the interaction score (4H477-bA) was -1.19 and the interaction score (4H2717-bA) was 0.0896. For the same binder, the interaction score (4H319-bA) was 0.789, the interaction score (4H3277-bA) was -0.938 and the interaction score (4H348-bA) was 1.27. It also gave an interaction score (4H3057-bA) of -0.114, an interaction score (4H2839-bA) of 0.846 and an interaction score (4H492-bA) of 0.34. It also gave an interaction score (4H40-bA) of -1.21.
